In the supplement of paper PMC10567573:

B1: CDC25B (parent)
chain: ELKTFRLKTRSWAGERSRRELCSR

Variants of: B1
Experiment: protein stability index of a GFP-peptide fusion (GPS, HEK-293T) (PSI 1-6); higher = more stable
Conditions: c terminus: a fixed tail appended
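Further: lentivirally expressed fusions sorted by FACS into six bins by GFP to DsRed ratio, PSI derived from sequencing read proportions per bin multiplied by bin number.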

Variant | protein stability index
R16I | 2.53
R16V | 1.93
R16W | 2.55
R16D | 3.83
R16E | 3.64
R16M | 2.97
R16S | 3.9
R16L | 2.91
R16F | 2.6
R16Q | 3.62
R16Y | 3.61
R16G | 3.74
R16T | 3.87
R16C | 2.97
R16N | 3.34
R16H | 3.46
R16P | 3.67
R16A | 3.64
R16K | 2.81
R6M | 2.14
R6W | 1.89
R6S | 3.33
R6N | 3.3
R6P | 3.75

Variant | protein stability index
R6K | 2.85
R6D | 3.17
R6H | 3.25
R6C | 2.14
R6L | 2.04
R6E | 1.84
R6G | 3.34
R6Y | 2.42
R6T | 3.39
R6V | 2.32
R6F | 1.75
R6I | 2.06
R6Q | 3.75
R6A | 2.78
E1K | 2.97
E1A | 3.96
E1F | 1.95
E1I | 1.9
E1M | 2.2
E1Q | 3.57
E1D | 3.03
E1T | 2.69
E1C | 3.07
E1W | 2.6

Variant | protein stability index
E1S | 3.2
E1Y | 2.19
E1G | 3.09
E1H | 3.29
E1N | 3.01
E1L | 2.8
E1V | 3.31
E1R | 3.03
E1P | 3.72
K8D | 3.41
K8L | 3.2
K8T | 3.65
K8A | 2.88
K8M | 2.8
K8V | 2.68
K8R | 5.09
K8N | 2.99
K8H | 3.07
K8P | 2.77
K8Y | 2.71
K8W | 2.1
K8S | 3.55
K8E | 3.2
K8F | 2.28

Variant | protein stability index
K8G | 2.4
K8Q | 3.34
K8C | 2.73
K8I | 1.92
S11Q | 2.58
S11F | 2.58
S11C | 2.63
S11M | 2.42
S11V | 2.11
S11L | 2.61
S11E | 3.11
S11N | 3.2
S11K | 2.64
S11T | 3.1
S11H | 1.95
S11D | 2.95
S11A | 2.68
S11R | 2.4
S11P | 2.59
S11I | 2.71
S11G | 2.94
S11W | 2.57
F5N | 3.63
F5C | 3.09

Variant | protein stability index
F5R | 3.78
F5T | 3.82
F5W | 2.87
F5E | 2.5
F5S | 3.94
F5M | 3.6
F5G | 3.69
F5L | 3.65
F5Q | 3.67
F5K | 4.24
F5H | 3.92
F5V | 3.96
F5P | 4.43
F5Y | 3.94
F5D | 4.08
F5I | 3.59
F5A | 4.09
A13W | 2.2
A13S | 2.85
A13K | 3.31
A13V | 2.44
A13M | 2.92
A13D | 3.98
A13T | 3.1

Variant | protein stability index
A13E | 3.23
A13P | 3.84
A13R | 3.49
A13Y | 2.22
A13C | 2.94
A13L | 2.62
A13I | 2.22
A13F | 1.88
A13N | 3.81
A13G | 3.41
A13Q | 3.01
A13H | 3.81
T9W | 1.54
T9M | 2.3
T9S | 4.09
T9D | 3.35
T9I | 1.99
T9R | 4.65
T9V | 2.6
T9H | 3.29
T9L | 2.09
T9A | 3.66
T9F | 2.18
T9Y | 3.16

Variant | protein stability index
T9G | 4
T9Q | 3.13
T9K | 3.84
T9P | 3.14
T9C | 3.58
T9E | 3.69
T9N | 3.66
R18C | 2.23
R18A | 3.85
R18H | 3.33
R18D | 3.4
R18N | 3.18
R18M | 3.36
R18F | 2.62
R18G | 2.95
R18K | 3.36
R18P | 3.64
R18Q | 4.01
R18E | 3.52
R18L | 3.23
R18I | 3.04
S17A | 3.4
S17T | 3.33
S17Y | 3.27

Variant | protein stability index
S17M | 2.52
S17I | 2.32
S17P | 3.35
S17W | 2.16
S17L | 2.87
S17D | 3.46
S17N | 2.93
S17K | 2.77
S17Q | 3.35
S17C | 2.69
S17H | 3.21
S17E | 4.03
S17F | 2.24
S17V | 2.36
S17G | 2.7
S17R | 2.63
W12A | 3.16
W12L | 3.41
W12R | 4.08
W12P | 3.55
W12C | 2.87
W12H | 3.64
W12E | 4.2
W12Y | 3.66

Variant | protein stability index
W12G | 3.54
W12F | 3.34
W12N | 3.45
W12S | 3.54
W12I | 3.3
W12M | 2.43
W12V | 3.45
W12K | 3.94
W12T | 3.38
W12D | 4.12
W12Q | 3.49
E15Q | 3.06
E15I | 2.75
E15V | 2.51
E15R | 3.06
E15F | 2.58
E15T | 2.98
E15W | 2.4
E15P | 3.2
E15H | 3.02
E15A | 3.04
E15G | 2.68
E15L | 2.78
E15N | 2.66

Variant | protein stability index
E15D | 3.36
E15K | 3.3
E15Y | 2.46
E15C | 2.44
E15M | 2.67
E15S | 2.96
T4H | 3.27
T4P | 3.41
T4D | 4.42
T4I | 2.26
T4G | 2.9
T4Y | 3.27
T4Q | 3.18
T4E | 3.16
T4S | 3.6
T4A | 3.47
T4C | 2.56
T4F | 2.79
T4K | 2.61
T4L | 2.85
T4M | 2.96
T4R | 2.52
T4N | 2.09
T4V | 3.27

Variant | protein stability index
K3N | 3.38
K3R | 3.6
K3H | 3.63
K3L | 2.14
K3A | 2.92
K3T | 3.2
K3S | 3.62
K3D | 3.33
K3Y | 2.91
K3F | 1.61
K3M | 3.02
K3C | 2.78
K3E | 3.29
K3P | 3.42
K3Q | 3.25
K3I | 1.89
K3W | 2.44
K3G | 3.71
K3V | 2.67
L7Y | 3.29
L7E | 4.07
L7S | 3.91
L7V | 3.33
L7A | 3.75

Variant | protein stability index
L7K | 4.68
L7R | 4.57
L7H | 3.6
L7D | 3.86
L7I | 3.25
L7Q | 3.75
L7C | 3.98
L7N | 3.57
L7M | 3.81
L7G | 4.12
L7T | 4.08
L7W | 2.99
L7P | 3.99
R10C | 2.94
R10E | 2.66
R10F | 2.54
R10D | 3.62
R10A | 3.15
R10P | 3.13
R10K | 3.66
R10W | 2.41
R10I | 2.8
R10N | 3.13
R10Q | 3.1

Variant | protein stability index
R10S | 3.5
R10G | 2.44
R10L | 3.38
R10M | 2.92
R10V | 2.45
R10H | 3.04
R10Y | 3.19
R10T | 2.37
L2T | 3.72
L2H | 3.74
L2G | 3.75
L2P | 3.89
L2N | 4.04
L2I | 3.17
L2S | 4.12
L2D | 3.81
L2W | 2.83
L2R | 3.67
L2C | 4.24
L2K | 3.53
L2M | 3.87
L2A | 4.42
L2Y | 3.78
L2E | 4.97

Variant | protein stability index
L2V | 3.44
L2Q | 4.5
L2F | 2.54
G14M | 2.66
G14W | 3.23
G14I | 2.67
G14Y | 2.05
G14D | 3.62
G14H | 2.65
G14K | 2.7
G14A | 2.42
G14T | 3.53
G14R | 2.73
G14E | 3.16
G14N | 2.48
G14F | 3.15
G14V | 2.19
G14Q | 2.58
G14L | 2.61
G14C | 2.5
G14P | 2.25
G14S | 2.39
